Sequences and labels used below:
B1: OmpT protease variant OmpT D97V (protein)
chain: STETLSFTPDNINADISLGTLSGKTKERVYLAEEGGRKVSQLDWKFNNAAIIKGAINWDLMPQISIGAAGWTTLGSRGGNMVDQDWMDSSNPGTWTVESRHPDTQLNYANEFDLNIKGWLLNEPNYRLGLMAGYQESRYSFTARGGSYIYSSEEGFRDDIGSFPNGERAIGYKQRFKMPYIGLTGSYRYEDFELGGTFKYSGWVESSDNDEHYDPGKRITYRSKVKDQNYYSVAVNAGYYVTPNAKVYVEGAWNRVTNKKGNTSLYDHNNNTSDYSKNGAGIENYNFITTAGLKYTF
B2: OmpT protease variant OmpT D97A (protein)
chain: STETLSFTPDNINADISLGTLSGKTKERVYLAEEGGRKVSQLDWKFNNAAIIKGAINWDLMPQISIGAAGWTTLGSRGGNMVDQDWMDSSNPGTWTAESRHPDTQLNYANEFDLNIKGWLLNEPNYRLGLMAGYQESRYSFTARGGSYIYSSEEGFRDDIGSFPNGERAIGYKQRFKMPYIGLTGSYRYEDFELGGTFKYSGWVESSDNDEHYDPGKRITYRSKVKDQNYYSVAVNAGYYVTPNAKVYVEGAWNRVTNKKGNTSLYDHNNNTSDYSKNGAGIENYNFITTAGLKYTF
B3: OmpT protease variant OmpT D97G (protein)
chain: STETLSFTPDNINADISLGTLSGKTKERVYLAEEGGRKVSQLDWKFNNAAIIKGAINWDLMPQISIGAAGWTTLGSRGGNMVDQDWMDSSNPGTWTGESRHPDTQLNYANEFDLNIKGWLLNEPNYRLGLMAGYQESRYSFTARGGSYIYSSEEGFRDDIGSFPNGERAIGYKQRFKMPYIGLTGSYRYEDFELGGTFKYSGWVESSDNDEHYDPGKRITYRSKVKDQNYYSVAVNAGYYVTPNAKVYVEGAWNRVTNKKGNTSLYDHNNNTSDYSKNGAGIENYNFITTAGLKYTF
B4: OmpT protease variant OmpT D97N (protein)
chain: STETLSFTPDNINADISLGTLSGKTKERVYLAEEGGRKVSQLDWKFNNAAIIKGAINWDLMPQISIGAAGWTTLGSRGGNMVDQDWMDSSNPGTWTNESRHPDTQLNYANEFDLNIKGWLLNEPNYRLGLMAGYQESRYSFTARGGSYIYSSEEGFRDDIGSFPNGERAIGYKQRFKMPYIGLTGSYRYEDFELGGTFKYSGWVESSDNDEHYDPGKRITYRSKVKDQNYYSVAVNAGYYVTPNAKVYVEGAWNRVTNKKGNTSLYDHNNNTSDYSKNGAGIENYNFITTAGLKYTF
B5: OmpT protease variant OmpT D97S (protein)
chain: STETLSFTPDNINADISLGTLSGKTKERVYLAEEGGRKVSQLDWKFNNAAIIKGAINWDLMPQISIGAAGWTTLGSRGGNMVDQDWMDSSNPGTWTSESRHPDTQLNYANEFDLNIKGWLLNEPNYRLGLMAGYQESRYSFTARGGSYIYSSEEGFRDDIGSFPNGERAIGYKQRFKMPYIGLTGSYRYEDFELGGTFKYSGWVESSDNDEHYDPGKRITYRSKVKDQNYYSVAVNAGYYVTPNAKVYVEGAWNRVTNKKGNTSLYDHNNNTSDYSKNGAGIENYNFITTAGLKYTF
B6: OmpT protease variant OmpT D97M (protein)
chain: STETLSFTPDNINADISLGTLSGKTKERVYLAEEGGRKVSQLDWKFNNAAIIKGAINWDLMPQISIGAAGWTTLGSRGGNMVDQDWMDSSNPGTWTMESRHPDTQLNYANEFDLNIKGWLLNEPNYRLGLMAGYQESRYSFTARGGSYIYSSEEGFRDDIGSFPNGERAIGYKQRFKMPYIGLTGSYRYEDFELGGTFKYSGWVESSDNDEHYDPGKRITYRSKVKDQNYYSVAVNAGYYVTPNAKVYVEGAWNRVTNKKGNTSLYDHNNNTSDYSKNGAGIENYNFITTAGLKYTF
B7: OmpT protease variant OmpT D97I (protein)
chain: STETLSFTPDNINADISLGTLSGKTKERVYLAEEGGRKVSQLDWKFNNAAIIKGAINWDLMPQISIGAAGWTTLGSRGGNMVDQDWMDSSNPGTWTIESRHPDTQLNYANEFDLNIKGWLLNEPNYRLGLMAGYQESRYSFTARGGSYIYSSEEGFRDDIGSFPNGERAIGYKQRFKMPYIGLTGSYRYEDFELGGTFKYSGWVESSDNDEHYDPGKRITYRSKVKDQNYYSVAVNAGYYVTPNAKVYVEGAWNRVTNKKGNTSLYDHNNNTSDYSKNGAGIENYNFITTAGLKYTF
B8: OmpT protease variant OmpT D97E (protein)
chain: STETLSFTPDNINADISLGTLSGKTKERVYLAEEGGRKVSQLDWKFNNAAIIKGAINWDLMPQISIGAAGWTTLGSRGGNMVDQDWMDSSNPGTWTEESRHPDTQLNYANEFDLNIKGWLLNEPNYRLGLMAGYQESRYSFTARGGSYIYSSEEGFRDDIGSFPNGERAIGYKQRFKMPYIGLTGSYRYEDFELGGTFKYSGWVESSDNDEHYDPGKRITYRSKVKDQNYYSVAVNAGYYVTPNAKVYVEGAWNRVTNKKGNTSLYDHNNNTSDYSKNGAGIENYNFITTAGLKYTF
B9: OmpT protease variant OmpT D97Y (protein)
chain: STETLSFTPDNINADISLGTLSGKTKERVYLAEEGGRKVSQLDWKFNNAAIIKGAINWDLMPQISIGAAGWTTLGSRGGNMVDQDWMDSSNPGTWTYESRHPDTQLNYANEFDLNIKGWLLNEPNYRLGLMAGYQESRYSFTARGGSYIYSSEEGFRDDIGSFPNGERAIGYKQRFKMPYIGLTGSYRYEDFELGGTFKYSGWVESSDNDEHYDPGKRITYRSKVKDQNYYSVAVNAGYYVTPNAKVYVEGAWNRVTNKKGNTSLYDHNNNTSDYSKNGAGIENYNFITTAGLKYTF
B10: OmpT protease variant OmpT D97F (protein)
chain: STETLSFTPDNINADISLGTLSGKTKERVYLAEEGGRKVSQLDWKFNNAAIIKGAINWDLMPQISIGAAGWTTLGSRGGNMVDQDWMDSSNPGTWTFESRHPDTQLNYANEFDLNIKGWLLNEPNYRLGLMAGYQESRYSFTARGGSYIYSSEEGFRDDIGSFPNGERAIGYKQRFKMPYIGLTGSYRYEDFELGGTFKYSGWVESSDNDEHYDPGKRITYRSKVKDQNYYSVAVNAGYYVTPNAKVYVEGAWNRVTNKKGNTSLYDHNNNTSDYSKNGAGIENYNFITTAGLKYTF
B11: OmpT protease variant OmpT D97Q (protein)
chain: STETLSFTPDNINADISLGTLSGKTKERVYLAEEGGRKVSQLDWKFNNAAIIKGAINWDLMPQISIGAAGWTTLGSRGGNMVDQDWMDSSNPGTWTQESRHPDTQLNYANEFDLNIKGWLLNEPNYRLGLMAGYQESRYSFTARGGSYIYSSEEGFRDDIGSFPNGERAIGYKQRFKMPYIGLTGSYRYEDFELGGTFKYSGWVESSDNDEHYDPGKRITYRSKVKDQNYYSVAVNAGYYVTPNAKVYVEGAWNRVTNKKGNTSLYDHNNNTSDYSKNGAGIENYNFITTAGLKYTF
B12: OmpT protease variant OmpT D97H (protein)
chain: STETLSFTPDNINADISLGTLSGKTKERVYLAEEGGRKVSQLDWKFNNAAIIKGAINWDLMPQISIGAAGWTTLGSRGGNMVDQDWMDSSNPGTWTHESRHPDTQLNYANEFDLNIKGWLLNEPNYRLGLMAGYQESRYSFTARGGSYIYSSEEGFRDDIGSFPNGERAIGYKQRFKMPYIGLTGSYRYEDFELGGTFKYSGWVESSDNDEHYDPGKRITYRSKVKDQNYYSVAVNAGYYVTPNAKVYVEGAWNRVTNKKGNTSLYDHNNNTSDYSKNGAGIENYNFITTAGLKYTF
B13: OmpT protease variant OmpT D97P (protein)
chain: STETLSFTPDNINADISLGTLSGKTKERVYLAEEGGRKVSQLDWKFNNAAIIKGAINWDLMPQISIGAAGWTTLGSRGGNMVDQDWMDSSNPGTWTPESRHPDTQLNYANEFDLNIKGWLLNEPNYRLGLMAGYQESRYSFTARGGSYIYSSEEGFRDDIGSFPNGERAIGYKQRFKMPYIGLTGSYRYEDFELGGTFKYSGWVESSDNDEHYDPGKRITYRSKVKDQNYYSVAVNAGYYVTPNAKVYVEGAWNRVTNKKGNTSLYDHNNNTSDYSKNGAGIENYNFITTAGLKYTF
B14: OmpT protease variant OmpT D97C (protein)
chain: STETLSFTPDNINADISLGTLSGKTKERVYLAEEGGRKVSQLDWKFNNAAIIKGAINWDLMPQISIGAAGWTTLGSRGGNMVDQDWMDSSNPGTWTCESRHPDTQLNYANEFDLNIKGWLLNEPNYRLGLMAGYQESRYSFTARGGSYIYSSEEGFRDDIGSFPNGERAIGYKQRFKMPYIGLTGSYRYEDFELGGTFKYSGWVESSDNDEHYDPGKRITYRSKVKDQNYYSVAVNAGYYVTPNAKVYVEGAWNRVTNKKGNTSLYDHNNNTSDYSKNGAGIENYNFITTAGLKYTF
B15: OmpT protease variant OmpT D97L (protein)
chain: STETLSFTPDNINADISLGTLSGKTKERVYLAEEGGRKVSQLDWKFNNAAIIKGAINWDLMPQISIGAAGWTTLGSRGGNMVDQDWMDSSNPGTWTLESRHPDTQLNYANEFDLNIKGWLLNEPNYRLGLMAGYQESRYSFTARGGSYIYSSEEGFRDDIGSFPNGERAIGYKQRFKMPYIGLTGSYRYEDFELGGTFKYSGWVESSDNDEHYDPGKRITYRSKVKDQNYYSVAVNAGYYVTPNAKVYVEGAWNRVTNKKGNTSLYDHNNNTSDYSKNGAGIENYNFITTAGLKYTF
B16: OmpT protease variant OmpT D97T (protein)
chain: STETLSFTPDNINADISLGTLSGKTKERVYLAEEGGRKVSQLDWKFNNAAIIKGAINWDLMPQISIGAAGWTTLGSRGGNMVDQDWMDSSNPGTWTTESRHPDTQLNYANEFDLNIKGWLLNEPNYRLGLMAGYQESRYSFTARGGSYIYSSEEGFRDDIGSFPNGERAIGYKQRFKMPYIGLTGSYRYEDFELGGTFKYSGWVESSDNDEHYDPGKRITYRSKVKDQNYYSVAVNAGYYVTPNAKVYVEGAWNRVTNKKGNTSLYDHNNNTSDYSKNGAGIENYNFITTAGLKYTF
B17: OmpT protease variant OmpT D97W (protein)
chain: STETLSFTPDNINADISLGTLSGKTKERVYLAEEGGRKVSQLDWKFNNAAIIKGAINWDLMPQISIGAAGWTTLGSRGGNMVDQDWMDSSNPGTWTWESRHPDTQLNYANEFDLNIKGWLLNEPNYRLGLMAGYQESRYSFTARGGSYIYSSEEGFRDDIGSFPNGERAIGYKQRFKMPYIGLTGSYRYEDFELGGTFKYSGWVESSDNDEHYDPGKRITYRSKVKDQNYYSVAVNAGYYVTPNAKVYVEGAWNRVTNKKGNTSLYDHNNNTSDYSKNGAGIENYNFITTAGLKYTF

The series deals with fusion protein PRV.
Sequence of fusion protein PRV (chain, as listed by the source): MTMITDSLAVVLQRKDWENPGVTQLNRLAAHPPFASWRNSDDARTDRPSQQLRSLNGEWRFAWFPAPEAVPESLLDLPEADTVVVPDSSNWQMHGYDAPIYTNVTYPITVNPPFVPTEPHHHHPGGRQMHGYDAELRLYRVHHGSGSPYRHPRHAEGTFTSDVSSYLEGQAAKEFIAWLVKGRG
As to B1, the relative cleavage efficiency result is recorded as “less than 3.0%”.

With B2, the relative cleavage efficiency was less than 3%.

Consider B3, for which the relative cleavage efficiency entry is “less than 3.0%”.

Protein B4 gave a relative cleavage efficiency of less than 3%.

Protein B5 gave a relative cleavage efficiency of less than 3%.

Regarding B6, the relative cleavage efficiency was found to be 3%.

Regarding B7, the relative cleavage efficiency result is “less than 3.0%”.

For B8, the relative cleavage efficiency was found to be 5%.

Take B9: the relative cleavage efficiency entry is “less than 3.0%”.

Turning to B10, the relative cleavage efficiency was less than 3%.

In turn, B11 came in with a relative cleavage efficiency of less than 3%.

B12 came in with a relative cleavage efficiency of 7.8%.

With B13, the relative cleavage efficiency entry is “less than 3.0%”.

Protein B14 returned a relative cleavage efficiency of 3.2%.

Consider B15, for which the relative cleavage efficiency was less than 3%.

In the case of B16, the relative cleavage efficiency was less than 3%.

For B17, the relative cleavage efficiency result is reported as “less than 3.0%”.
